In article PMC3597701:

Biological target: origin recognition complex (ORC) (S. cerevisiae) (UniProt P54784)
Assay: cross-linking

stoichiometry N (MCM2–7 hexamer per ORC): 1
Substance: MCM2–7 (mini-chromosome maintenance proteins 2–7) with a single HA tag at the N-terminus of Mcm3, P29469;P24279;P30665;P29496;P53091;P38132
